According to patent US20110024630A1, “System, Device, and Methods for Real-Time Screening of Live Cells, Biomarkers, and Chemical Signatures” (BATTELLE MEMORIAL INSTITUTE, priority 2009, published 2011):

Tested on: JB6 carcinogenesis mouse endothelial model cells
Test: Real-time ATR-FTIR monitoring of confluent cells treated with tumor promoter (bFGF)
Format: cell-based
Details: 72-hour time point, bFGF added at 48 hours
Procedure: Spent media was replaced with fresh media at 24-hour intervals. Cells were confluent at 24 hours and had attached to the ATR substrate. […] The 1604 cm^−1 band also contains a broad water band which is observed at the 6.5 hour time point where there is greater media contact with the ATR substrate due to a non-confluent cell monolayer. […] Tyrosine aromatic rings absorb in the 1508 cm^−1 region and the symmetric carboxylate stretching vibrations are reflected in the band at 1452 cm^−1. Overall, data reflect the ability to obtain spectra over a period of days which show the attachment of cells to the substrate and a response to perturbation.
Mouse cells (JB6 carcinogenesis mouse endothelial model cells) (clone 41-5a, ATCC, Manassas, Va., USA) were maintained in a minimal essential medium (MEM+GlutaMAX-I™, CISCO, Grand Island, N.Y.) supplemented with 5% fetal bovine serum (FBS) (Atlanta Biologicais, Norcross, Ga.) that further included: 1% penicillin/streptomycin (GIBCO, Grand Island, N.Y.) and an additional 1%. GlutaMAX-I™ (GIBCO, Grand Island, N.Y.). Cells were maintained at 37° C. and 5% CO2 in an incubator (e.g., a ThermoForma Series II Water Jacketed CO2 incubator. Thermo Fisher Scientific, inc., Waltham, Mass.) equipped with a HEPA filter. The JB6 cells were subcultured at 70-80% confluency following standard protocols. […]

For basic fibroblast growth factor [bFGF], the “cell outcome to which spectral results are attributed” value was “cell death” and the “1696 cm^-1 amide peak” value (FIG. 7b) was “increased intensity and has broadened”.
